From patent US20160297852A1 (FORSCHUNGSZENTRUM JUELICH, published 2016) come the findings set out here.

This assay deals with A beta oligomers of the QIAD test (A beta aggregated under controlled conditions) (UniProt P05067 672-713, limits assumed). Kind of assay: cell-based or functional assay.

Where no end group is shown, it is not given here. [ ]: non-standard residue; d: D form.

A beta oligomers of the QIAD test (A beta aggregated under controlled conditions), sequence (P05067 672-713 limits assumed): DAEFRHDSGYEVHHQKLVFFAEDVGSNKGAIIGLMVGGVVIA

B1: RD2D3 amidated (peptide)
peptide: [dP][dT][dL][dH][dT][dH][dN][dR][dR][dR][dR][dR][dR][dP][dR][dT][dR][dL][dH][dT][dH][dR][dN][dR]-NH2
modifications: N-terminus assumed
SMILES: CC(C)C[C@@H](NC(=O)[C@@H](CCCNC(=N)N)NC(=O)[C@H](NC(=O)[C@@H](CCCNC(=N)N)NC(=O)[C@H]1CCCN1C(=O)[C@@H](CCCNC(=N)N)NC(=O)[C@@H](CCCNC(=N)N)NC(=O)[C@@H](CCCNC(=N)N)NC(=O)[C@@H](CCCNC(=N)N)NC(=O)[C@@H](CCCNC(=N)N)NC(=O)[C@@H](CCCNC(=N)N)NC(=O)[C@@H](CC(N)=O)NC(=O)[C@@H](Cc1c[nH]cn1)NC(=O)[C@H](NC(=O)[C@@H](Cc1c[nH]cn1)NC(=O)[C@@H](CC(C)C)NC(=O)[C@H](NC(=O)[C@H]1CCCN1)[C@H](C)O)[C@H](C)O)[C@H](C)O)C(=O)N[C@H](Cc1c[nH]cn1)C(=O)N[C@@H](C(=O)N[C@H](Cc1c[nH]cn1)C(=O)N[C@H](CCCNC(=N)N)C(=O)N[C@H](CC(N)=O)C(=O)N[C@H](CCCNC(=N)N)C(N)=O)[C@H](C)O
As for B1, the “QIAD: reduction of oligomers in %” value is 100%.

B2: D3 amidated (peptide)
peptide: [dR][dP][dR][dT][dR][dL][dH][dT][dH][dR][dN][dR]-NH2
modifications: N-terminus assumed
SMILES: CC(C)C[C@@H](NC(=O)[C@@H](CCCNC(=N)N)NC(=O)[C@H](NC(=O)[C@@H](CCCNC(=N)N)NC(=O)[C@H]1CCCN1C(=O)[C@H](N)CCCNC(=N)N)[C@H](C)O)C(=O)N[C@H](Cc1c[nH]cn1)C(=O)N[C@@H](C(=O)N[C@H](Cc1c[nH]cn1)C(=O)N[C@H](CCCNC(=N)N)C(=O)N[C@H](CC(N)=O)C(=O)N[C@H](CCCNC(=N)N)C(N)=O)[C@H](C)O
Regarding B2, the “QIAD: reduction of oligomers in %” value worked out at 56%.

B3: D3RD2 amidated (peptide)
peptide: [dR][dP][dR][dT][dR][dL][dH][dT][dH][dR][dN][dR][dP][dT][dL][dH][dT][dH][dN][dR][dR][dR][dR][dR]-NH2
modifications: N-terminus assumed
SMILES: CC(C)C[C@@H](NC(=O)[C@@H](CCCNC(=N)N)NC(=O)[C@H](NC(=O)[C@@H](CCCNC(=N)N)NC(=O)[C@H]1CCCN1C(=O)[C@H](N)CCCNC(=N)N)[C@H](C)O)C(=O)N[C@H](Cc1c[nH]cn1)C(=O)N[C@@H](C(=O)N[C@H](Cc1c[nH]cn1)C(=O)N[C@H](CCCNC(=N)N)C(=O)N[C@H](CC(N)=O)C(=O)N[C@H](CCCNC(=N)N)C(=O)N1CCC[C@@H]1C(=O)N[C@@H](C(=O)N[C@H](CC(C)C)C(=O)N[C@H](Cc1c[nH]cn1)C(=O)N[C@@H](C(=O)N[C@H](Cc1c[nH]cn1)C(=O)N[C@H](CC(N)=O)C(=O)N[C@H](CCCNC(=N)N)C(=O)N[C@H](CCCNC(=N)N)C(=O)N[C@H](CCCNC(=N)N)C(=O)N[C@H](CCCNC(=N)N)C(=O)N[C@H](CCCNC(=N)N)C(N)=O)[C@H](C)O)[C@H](C)O)[C@H](C)O
In the case of B3, the “QIAD: reduction of oligomers in %” value worked out at 88%.

B4: D3D3 amidated (peptide)
peptide: [dR][dP][dR][dT][dR][dL][dH][dT][dH][dR][dN][dR][dR][dP][dR][dT][dR][dL][dH][dT][dH][dR][dN][dR]-NH2
modifications: N-terminus assumed
SMILES: CC(C)C[C@@H](NC(=O)[C@@H](CCCNC(=N)N)NC(=O)[C@H](NC(=O)[C@@H](CCCNC(=N)N)NC(=O)[C@H]1CCCN1C(=O)[C@H](N)CCCNC(=N)N)[C@H](C)O)C(=O)N[C@H](Cc1c[nH]cn1)C(=O)N[C@@H](C(=O)N[C@H](Cc1c[nH]cn1)C(=O)N[C@H](CCCNC(=N)N)C(=O)N[C@H](CC(N)=O)C(=O)N[C@H](CCCNC(=N)N)C(=O)N[C@H](CCCNC(=N)N)C(=O)N1CCC[C@@H]1C(=O)N[C@H](CCCNC(=N)N)C(=O)N[C@@H](C(=O)N[C@H](CCCNC(=N)N)C(=O)N[C@H](CC(C)C)C(=O)N[C@H](Cc1c[nH]cn1)C(=O)N[C@@H](C(=O)N[C@H](Cc1c[nH]cn1)C(=O)N[C@H](CCCNC(=N)N)C(=O)N[C@H](CC(N)=O)C(=O)N[C@H](CCCNC(=N)N)C(N)=O)[C@H](C)O)[C@H](C)O)[C@H](C)O
On to B4, for which the “QIAD: reduction of oligomers in %” value was found to be 98%.

B5: RD2RD2 amidated (peptide)
peptide: [dP][dT][dL][dH][dT][dH][dN][dR][dR][dR][dR][dR][dP][dT][dL][dH][dT][dH][dN][dR][dR][dR][dR][dR]-NH2
modifications: N-terminus assumed
SMILES: CC(C)C[C@@H](NC(=O)[C@H](NC(=O)[C@H]1CCCN1C(=O)[C@@H](CCCNC(=N)N)NC(=O)[C@@H](CCCNC(=N)N)NC(=O)[C@@H](CCCNC(=N)N)NC(=O)[C@@H](CCCNC(=N)N)NC(=O)[C@@H](CCCNC(=N)N)NC(=O)[C@@H](CC(N)=O)NC(=O)[C@@H](Cc1c[nH]cn1)NC(=O)[C@H](NC(=O)[C@@H](Cc1c[nH]cn1)NC(=O)[C@@H](CC(C)C)NC(=O)[C@H](NC(=O)[C@H]1CCCN1)[C@H](C)O)[C@H](C)O)[C@H](C)O)C(=O)N[C@H](Cc1c[nH]cn1)C(=O)N[C@@H](C(=O)N[C@H](Cc1c[nH]cn1)C(=O)N[C@H](CC(N)=O)C(=O)N[C@H](CCCNC(=N)N)C(=O)N[C@H](CCCNC(=N)N)C(=O)N[C@H](CCCNC(=N)N)C(=O)N[C@H](CCCNC(=N)N)C(=O)N[C@H](CCCNC(=N)N)C(N)=O)[C@H](C)O
On to B5, for which the “QIAD: reduction of oligomers in %” value was 97%.

B6: RD2 amidated (peptide)
peptide: [dP][dT][dL][dH][dT][dH][dN][dR][dR][dR][dR][dR]-NH2
modifications: N-terminus assumed
SMILES: CC(C)C[C@@H](NC(=O)[C@H](NC(=O)[C@H]1CCCN1)[C@H](C)O)C(=O)N[C@H](Cc1c[nH]cn1)C(=O)N[C@@H](C(=O)N[C@H](Cc1c[nH]cn1)C(=O)N[C@H](CC(N)=O)C(=O)N[C@H](CCCNC(=N)N)C(=O)N[C@H](CCCNC(=N)N)C(=O)N[C@H](CCCNC(=N)N)C(=O)N[C@H](CCCNC(=N)N)C(=O)N[C@H](CCCNC(=N)N)C(N)=O)[C@H](C)O
For the molecule B6, the “QIAD: reduction of oligomers in %” value is 78%.
